Source: patent US20200317768A1 (published 2020)

T1: human FcγRIIb extracellular domain with C-terminal His-tag (human, UniProt P31994 43-217)
T1 construct: Expressed in FreeStyle 293 cells and purified; also called humanFcgRIIb; not shown: C-terminal His-tag
T1 sequence: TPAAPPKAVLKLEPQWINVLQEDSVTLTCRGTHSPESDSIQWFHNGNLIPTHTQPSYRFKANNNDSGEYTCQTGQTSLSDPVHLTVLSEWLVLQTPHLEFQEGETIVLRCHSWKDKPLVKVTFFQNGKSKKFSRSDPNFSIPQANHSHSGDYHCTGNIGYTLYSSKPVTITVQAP

T2: cynomolgus monkey FcγRIIb extracellular domain with C-terminal His-tag (cynomolgus monkey)
T2 construct: Expressed in FreeStyle 293 cells and purified; also called cyno FcγRIIb; cynoFcγRIIb; not shown: C-terminal His-tag
T2 chain: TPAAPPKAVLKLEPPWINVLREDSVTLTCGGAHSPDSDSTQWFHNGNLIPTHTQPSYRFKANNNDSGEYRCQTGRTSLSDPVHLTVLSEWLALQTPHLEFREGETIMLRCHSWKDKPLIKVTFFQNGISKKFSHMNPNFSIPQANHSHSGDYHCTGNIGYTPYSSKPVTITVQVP

T3: cynomolgus monkey FcγRIIa2 extracellular domain with C-terminal His-tag (cynomolgus monkey)
T3 construct: Expressed in FreeStyle 293 cells and purified; also called cyno FcγRIIa2; cynoFcgRIIa2; not shown: C-terminal His-tag
T3 chain: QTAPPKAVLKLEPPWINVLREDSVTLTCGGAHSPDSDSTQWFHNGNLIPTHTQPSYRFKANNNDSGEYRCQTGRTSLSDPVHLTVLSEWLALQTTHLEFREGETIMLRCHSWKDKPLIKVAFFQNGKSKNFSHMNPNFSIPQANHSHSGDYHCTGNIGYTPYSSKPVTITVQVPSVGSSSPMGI

T4: cynomolgus monkey FcγRIIa3 extracellular domain with C-terminal His-tag (cynomolgus monkey)
T4 construct: Expressed in FreeStyle 293 cells and purified; also called cyno FcγRIIa3; cynoFcgRIIa3; not shown: C-terminal His-tag
T4 chain: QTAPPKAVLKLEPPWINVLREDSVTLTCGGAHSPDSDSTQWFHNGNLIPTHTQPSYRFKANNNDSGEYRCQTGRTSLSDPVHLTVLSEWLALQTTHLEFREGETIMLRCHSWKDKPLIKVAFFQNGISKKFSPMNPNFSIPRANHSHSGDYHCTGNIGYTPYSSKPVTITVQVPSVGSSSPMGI

T5: human FcγRIIaR extracellular domain with C-terminal His-tag (human, UniProt P12318 34-217)
T5 construct: Expressed in FreeStyle 293 cells and purified; also called human FcγRIIa (type R); FcgRIIaR; not shown: C-terminal His-tag
T5 chain: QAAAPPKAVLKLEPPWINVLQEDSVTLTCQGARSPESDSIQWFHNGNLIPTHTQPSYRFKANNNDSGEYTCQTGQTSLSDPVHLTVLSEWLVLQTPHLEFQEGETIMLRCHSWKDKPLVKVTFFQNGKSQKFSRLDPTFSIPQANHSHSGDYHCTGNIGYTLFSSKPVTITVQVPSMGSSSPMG

T6: cynomolgus monkey FcγRIIIaS extracellular domain with C-terminal His-tag (cynomolgus monkey, UniProt Q8SPW2 21-206 at identity 1.00))
T6 construct: Expressed in FreeStyle 293 cells and purified; also called cyno FcγRIIIaS; cynoFcγRIIIaS; not shown: C-terminal His-tag
T6 chain: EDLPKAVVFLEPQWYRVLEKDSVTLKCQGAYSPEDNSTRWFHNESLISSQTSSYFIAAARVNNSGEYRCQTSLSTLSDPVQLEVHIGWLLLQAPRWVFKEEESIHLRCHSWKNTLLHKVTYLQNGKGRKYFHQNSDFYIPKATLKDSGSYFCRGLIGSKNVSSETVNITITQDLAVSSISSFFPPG


Legend:
[1] = molecular target: T1, human FcγRIIb extracellular domain with …; test: SPR (Biacore), antibody captured on chip, FcgR extracellular domain as analyte, 25 C
[2] = molecular target: T7, human FcγRIIIaV extracellular domain with C-terminal His-tag (human, UniProt P08637 17-208); test: SPR (Biacore); KD of SG1 divided by KD of the variant for this FcgR;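 note: relative to parent M103205H795-SG1 carrying the SG1 human heavy chain constant region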
T7 construct: Expressed in FreeStyle 293 cells and purified; also called FcgRIIIaV; not shown: C-terminal His-tag
Protocol: (§1) The kinetic analysis of interactions between these antibodies and FcγR was carried out using BIACORE® T200 or BIACORE® 4000 (GE Healthcare). HBS-EP+ (GE Healthcare) was used as the running buffer, and the measurement temperature was set to 25° C. A chip produced by immobilizing Protein A. Protein A/G or mouse anti-human IgG kappa light chain (BD Biosciences) onto a Series S Sensor Chip CM4 or CM5 (GE Healthcare) by the amine-coupling method was used. […] After the measurement, the antibody captured on the chip was washed off by allowing reaction with 10 mM glycine-HCl, pH1.5 and 25 mM NaOH so that the chip was regenerated and used repeatedly. The sensorgrams obtained as measurement results were analyzed by the 1:1 Langmuir binding model using the BIACORE® Evaluation Software to calculate the binding rate constant ka (L/mol/s) and dissociation rate constant kd (l/s), and the dissociation constant KD (mol/L) was calculated from these values. […] Regarding such interactions, KD values were calculated using the following 1:1 binding model described in BIACORE® T100 Software Handbook BR1006-48 Edition AE.
(§2) The resultant variants were expressed using M103202L889-SK1 as light chain and their affinity to human and cynoFcγRs were evaluated (Table 20).

[3] = molecular target: T2, cynomolgus monkey FcγRIIb extracellular …; test: as above
Protocol: as §1, §2

[4] = molecular target: T3, cynomolgus monkey FcγRIIa2 …; test: as above
Protocol: as §1, §2

[5] = molecular target: T4, cynomolgus monkey FcγRIIa3 …; test: as above
Protocol: as §1, §2

[6] = molecular target: T5, human FcγRIIaR extracellular domain …; test: as above
Protocol: as §1, §2

[7] = molecular target: T6, cynomolgus monkey FcγRIIIaS …; test: as above
Protocol: as §1, §2

[8] = molecular target: T1, human FcγRIIb extracellular domain with …; test: as above
Protocol: as §1, §2

T7 sequence (P08637 17-208 F176V): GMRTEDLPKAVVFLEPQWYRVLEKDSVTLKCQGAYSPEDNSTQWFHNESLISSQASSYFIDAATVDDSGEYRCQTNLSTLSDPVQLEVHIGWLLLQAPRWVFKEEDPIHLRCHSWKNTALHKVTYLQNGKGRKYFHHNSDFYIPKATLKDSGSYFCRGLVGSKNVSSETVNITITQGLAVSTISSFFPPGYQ

Kd [1]	KD fold (SG1 = 1) [2]	KD fold (SG1 = 1) [3]	KD fold (SG1 = 1) [4]	KD fold (SG1 = 1) [5]	KD fold (SG1 = 1) [6]	KD fold (SG1 = 1) [7]	KD fold (SG1 = 1) [8]	Binder
1.8 µM	0.12 fold	1.5 fold	1.5 fold	1.5 fold	0.4 fold	0.11 fold	2.6 fold	M103205H795-MY172 / M103202L889-SK1 (antibody, human IgG1, kappa, Position 396 variant derived from MY052, expressed with M103202L889-SK1 as light chain) heavy: QVTLKESGPVLVKPTETLTLTCTVSGIDLSHDDISWVRQAPGKGLEWVGIISYAGSTYYASWAKGRLTISKDTSKNQVVLTMTNMDPVDTATYYCARGVPAYSHGGDLWGQGTLVTVSSASTKGPSVFPLAPSSKSTSGGTAALGCLVKDYFPEPVTVSWNSGALTSGVHTFPAVLQSSGLYSLSSVVTVPSSSLGTQTYICNVNHKPSNTKVDKKVEPKSCDKTHTCPPCPAPELLNGPSVFLFPPKPKDTLMISRTPEVTCVVVDVSEEDPEVKFNWYVDGVEVHNAKTKPREEQYNSTYRVVSVLTVLHQDWLNGKEYKCKVSNKALPAPIEKTISKAKGQPREPQVYTLPPSREEMTKNQVSLTCLVKGFYPSDIAVEWESNGQPENNYKTTPGVLDSDGSFFLYSKLTVDKSRWQQGNVFSCSVMHEALHNHYTQKSLSLSP light: DIVMTQSPATLSLSPGERATLSCTSSQSVYHANWLSWFQQKPGQPPKLLIYWASTLAYGVPSRFSGSGSGTDFTLTISSLQPEDAATYYCAGGYGGGRYAFGQGTKVEIKRTVAAPSVFIFPPSDEQLKSGTASVVCLLNNFYPREAKVQWKVDNALQSGNSQESVTEQDSKDSTYSLSSTLTLSKADYEKHKVYACEVTHQGLSSPVTKSFNRGEC
10 µM	0.12 fold	2.3 fold	2.8 fold	2.1 fold	0.6 fold	0.12 fold	4.6 fold	M103205H795-MY173 / M103202L889-SK1 (antibody, human IgG1, kappa, Position 396 variant derived from MY052, expressed with M103202L889-SK1 as light chain) heavy: QVTLKESGPVLVKPTETLTLTCTVSGIDLSHDDISWVRQAPGKGLEWVGIISYAGSTYYASWAKGRLTISKDTSKNQVVLTMTNMDPVDTATYYCARGVPAYSHGGDLWGQGTLVTVSSASTKGPSVFPLAPSSKSTSGGTAALGCLVKDYFPEPVTVSWNSGALTSGVHTFPAVLQSSGLYSLSSVVTVPSSSLGTQTYICNVNHKPSNTKVDKKVEPKSCDKTHTCPPCPAPELLNGPSVFLFPPKPKDTLMISRTPEVTCVVVDVSEEDPEVKFNWYVDGVEVHNAKTKPREEQYNSTYRVVSVLTVLHQDWLNGKEYKCKVSNKALPAPIEKTISKAKGQPREPQVYTLPPSREEMTKNQVSLTCLVKGFYPSDIAVEWESNGQPENNYKTTPHVLDSDGSFFLYSKLTVDKSRWQQGNVFSCSVMHEALHNHYTQKSLSLSP light: DIVMTQSPATLSLSPGERATLSCTSSQSVYHANWLSWFQQKPGQPPKLLIYWASTLAYGVPSRFSGSGSGTDFTLTISSLQPEDAATYYCAGGYGGGRYAFGQGTKVEIKRTVAAPSVFIFPPSDEQLKSGTASVVCLLNNFYPREAKVQWKVDNALQSGNSQESVTEQDSKDSTYSLSSTLTLSKADYEKHKVYACEVTHQGLSSPVTKSFNRGEC
0.85 µM	0.12 fold	2.8 fold	3.2 fold	2.7 fold	0.8 fold	0.14 fold	5.4 fold	M103205H795-MY174 / M103202L889-SK1 (antibody, human IgG1, kappa, Position 396 variant derived from MY052, expressed with M103202L889-SK1 as light chain) heavy: QVTLKESGPVLVKPTETLTLTCTVSGIDLSHDDISWVRQAPGKGLEWVGIISYAGSTYYASWAKGRLTISKDTSKNQVVLTMTNMDPVDTATYYCARGVPAYSHGGDLWGQGTLVTVSSASTKGPSVFPLAPSSKSTSGGTAALGCLVKDYFPEPVTVSWNSGALTSGVHTFPAVLQSSGLYSLSSVVTVPSSSLGTQTYICNVNHKPSNTKVDKKVEPKSCDKTHTCPPCPAPELLNGPSVFLFPPKPKDTLMISRTPEVTCVVVDVSEEDPEVKFNWYVDGVEVHNAKTKPREEQYNSTYRVVSVLTVLHQDWLNGKEYKCKVSNKALPAPIEKTISKAKGQPREPQVYTLPPSREEMTKNQVSLTCLVKGFYPSDIAVEWESNGQPENNYKTTPIVLDSDGSFFLYSKLTVDKSRWQQGNVFSCSVMHEALHNHYTQKSLSLSP light: DIVMTQSPATLSLSPGERATLSCTSSQSVYHANWLSWFQQKPGQPPKLLIYWASTLAYGVPSRFSGSGSGTDFTLTISSLQPEDAATYYCAGGYGGGRYAFGQGTKVEIKRTVAAPSVFIFPPSDEQLKSGTASVVCLLNNFYPREAKVQWKVDNALQSGNSQESVTEQDSKDSTYSLSSTLTLSKADYEKHKVYACEVTHQGLSSPVTKSFNRGEC
0.83 µM	0.11 fold	2.5 fold	3.4 fold	2.5 fold	0.7 fold	0.14 fold	5.5 fold	M103205H795-MY175 / M103202L889-SK1 (antibody, human IgG1, kappa, Position 396 variant derived from MY052, expressed with M103202L889-SK1 as light chain) heavy: QVTLKESGPVLVKPTETLTLTCTVSGIDLSHDDISWVRQAPGKGLEWVGIISYAGSTYYASWAKGRLTISKDTSKNQVVLTMTNMDPVDTATYYCARGVPAYSHGGDLWGQGTLVTVSSASTKGPSVFPLAPSSKSTSGGTAALGCLVKDYFPEPVTVSWNSGALTSGVHTFPAVLQSSGLYSLSSVVTVPSSSLGTQTYICNVNHKPSNTKVDKKVEPKSCDKTHTCPPCPAPELLNGPSVFLFPPKPKDTLMISRTPEVTCVVVDVSEEDPEVKFNWYVDGVEVHNAKTKPREEQYNSTYRVVSVLTVLHQDWLNGKEYKCKVSNKALPAPIEKTISKAKGQPREPQVYTLPPSREEMTKNQVSLTCLVKGFYPSDIAVEWESNGQPENNYKTTPKVLDSDGSFFLYSKLTVDKSRWQQGNVFSCSVMHEALHNHYTQKSLSLSP light: DIVMTQSPATLSLSPGERATLSCTSSQSVYHANWLSWFQQKPGQPPKLLIYWASTLAYGVPSRFSGSGSGTDFTLTISSLQPEDAATYYCAGGYGGGRYAFGQGTKVEIKRTVAAPSVFIFPPSDEQLKSGTASVVCLLNNFYPREAKVQWKVDNALQSGNSQESVTEQDSKDSTYSLSSTLTLSKADYEKHKVYACEVTHQGLSSPVTKSFNRGEC
